This is an account of results in the supplement of paper PMC5998384.

In series [1] the test system is HeLa Kyoto. Description: solubility in G1/S (NP-40 vs SDS abundance) (log2 ratio); higher = more soluble. Conditions: cell cycle stage: G1/S.
In series [2] the test system is HeLa Kyoto. Description: solubility change mitosis vs G1/S (difference of NP-40 vs SDS log2 ratios) (log2 ratio difference); higher = more soluble in mitosis.
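Throughout, for solubility change mitosis vs G1/S (difference of NP-40 vs SDS log2 ratios): synchronized HeLa Kyoto cells (double thymidine block for G1/S, nocodazole release for mitosis), protein amounts in NP-40 versus SDS lysates quantified by mass spectrometry, three biological replicates.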
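Throughout, for solubility in G1/S (NP-40 vs SDS abundance): HeLa Kyoto cells arrested at G1/S by double thymidine block, proteins quantified by TMT10plex mass spectrometry in mild NP-40 versus SDS extracts, three biological replicates.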

With “MGDPGSEIIESVPPAGPEASESTTDENEDDIQFVSEGPLRPVLEYIDLVSSDDEEPSTSYTDENIKRKDHIDYQKDKVALTLARLARHVEVEKQQKEEKNRAFREKIDFQHAHGLQELEFIRGHSDTEAARLCVDQWLKMPGLKTGTINCGTKSSFRRGGHTWVSGKPILCPIMHCNKEFDNGHLLLGHLKRFDHSPCDPTITLHGPFFSSFACVVCYKKFVTQQQYRDHLFDKEATDDGHNNNLLPQIIQCFACPNCFLLFSRKEECSKHMSGKNHFHQSFKLGDNKGIAHPISFPSFAKKLLISLCKDVPFQVKCVACHKTLRSHMELTAHFRVHCRNAGPVAVAEKSITQVAEKFILRGYCPDCNQVFVDETSTQNHKQNSGHKVRVINSVEESVLLYCHSSEGNKDPSSDLHLLLDQSKFSSLKRTMSIKESSSLECIAIPKKKMNLKDKSHEGVACVQKEKSVVKTWFCECNQRFPSEDAVEKHVFSANTMGYKCVVCGKVCDDSGVIRLHMSRIHGGAHLNNFLFWCRTCKKELTRKDTIMAHVTEFHNGHRYFYEMDEVEGETLPSSSTTLDNLTANKPSSAITVIDHSPANSSPRGKWQCRICEDMFDSQEYVKQHCMSLASHKFHRYSCAHCRKPFHKIETLYRHCQDEHDNEIKIKYFCGLCDLIFNVEEAFLSHYEEHHSIDYVFVSEKTETSIKTEDDFPVIETSNQLTCGCRESYICKVNRKEDYSRCLQIMLDKGKLWFRCSLCSATAQNLTDMNTHIHQVHKEKSDEEEQQYVIKCGTCTKAFHDPESAQQHFHRKHCFLQKPSVAHFGSEKSNLYKFTASASHTERKLKQAINYSKSLDMEKGVENDLSYQNIEEEIVELPDLDYLRTMTHIVFVDFDNWSNFFGHLPGHLNQGTFIWGFQGGNTNWKPPLNCKIYNYLNRIGCFFLHPRCSKRKDAADFAICMHAGRLDEQLPKQIPFTILSGDQGFLELENQFKKTQRPAHILNPHHLEGDMMCALLNSISDTTKECDSDDNMGAKNTSIGEEFISTEDVELEEAIRRSLEEM [ZNF451]”, in the series with HeLa Kyoto [1], the “solubility in G1/S (log2)” value was -0.657. Further, the “solubility change mitosis (log2)” value in the series with HeLa Kyoto [2] is -0.197.

For the sequence “MGDWMTVTDPGLSSESKTISQYTSETKMSPSSLYSQQVLCSSIPLSKNVHSFFSAFCTEDNIEQSISYLDQELTTFGFPSLYEESKGKETKRELNIVAVLNCMNELLVLQRKNLLAQENVETQNLKLGSDMDHLQSCYSKLKEQLETSRREMIGLQERDRQLQCKNRNLHQLLKNEKDEVQKLQNIIASRATQYNHDMKRKEREYNKLKERLHQLVMNKKDKKIAMDILNYVGRADGKRGSWRTGKTEARNEDEMYKILLNDYEYRQKQILMENAELKKVLQQMKKEMISLLSPQKKKPRERVDDSTGTVISDVEEDAGELSRESMWDLSCETVREQLTNSIRKQWRILKSHVEKLDNQVSKVHLEGFNDEDVISRQDHEQETEKLELEIQQCKEMIKTQQQLLQQQLATAYDDDTTSLLRDCYLLEEKERLKEEWSLFKEQKKNFERERRSFTEAAIRLGLERKAFEEERASWLKQQFLNMTTFDHQNSENVKLFSAFSGSSDWDNLIVHSRQPQKKPHSVSNGSPVCMSKLTKSLPASPSTSDFCQTRSCISEHSSINVLNITAEEIKPNQVGGECTNQKWSVASRPGSQEGCYSGCSLSYTNSHVEKDDLP [SSX2IP]”, in the series on HeLa Kyoto [1], the “solubility in G1/S (log2)” value was -0.387. Further, the “solubility change mitosis (log2)” value in the series on HeLa Kyoto [2] came to 0.187.

As to “MGLKAAQKTLFPLRSIDDVVRLFAAELGREEPDLVLLSLVLGFVEHFLAVNRVIPTNVPELTFQPSPAPDPPGGLTYFPVADLSIIAALYARFTAQIRGAVDLSLYPREGGVSSRELVKKVSDVIWNSLSRSYFKDRAHIQSLFSFITGTKLDSSGVAFAVVGACQALGLRDVHLALSEDHAWVVFGPNGEQTAEVTWHGKGNEDRRGQTVNAGVAERSWLYLKGSYMRCDRKMEVAFMVCAINPSIDLHTDSLELLQLQQKLLWLLYDLGHLERYPMALGNLADLEELEPTPGRPDPLTLYHKGIASAKTYYRDEHIYPYMYLAGYHCRNRNVREALQAWADTATVIQDYNYCREDEEIYKEFFEVANDVIPNLLKEAASLLEAGEERPGEQSQGTQSQGSALQDPECFAHLLRFYDGICKWEEGSPTPVLHVGWATFLVQSLGRFEGQVRQKVRIVSREAEAAEAEEPWGEEAREGRRRGPRRESKPEEPPPPKKPALDKGLGTGQGAVSGPPRKPPGTVAGTARGPEGGSTAQVPAPTASPPPEGPVLTFQSEKMKGMKELLVATKINSSAIKLQLTAQSQVQMKKQKVSTPSDYTLSFLKRQRKGL [MEN1]”, the “solubility in G1/S (log2)” value in the series with HeLa Kyoto [1] was -0.472. Moreover, in the series with HeLa Kyoto [2], the “solubility change mitosis (log2)” value is 0.197.

With “MGNIFGNLLKSLIGKKEMRILMVGLDAAGKTTILYKLKLGEIVTTIPTIGFNVETVEYKNISFTVWDVGGQDKIRPLWRHYFQNTQGLIFVVDSNDRERVNEAREELMRMLAEDELRDAVLLVFANKQDLPNAMNAAEITDKLGLHSLRHRNWYIQATCATSGDGLYEGLDWLANQLKNKK [ARF3]”, in the series on HeLa Kyoto [1], the “solubility in G1/S (log2)” value was -0.169. In addition, in the series on HeLa Kyoto [2], the “solubility change mitosis (log2)” value is -0.299.

Regarding “MGPLRESKKEHRVQHHDKEISRSRIPRLILRPHMPQQQHKVSPASESPFSEEESREFNPSSSGRSARTVSSNSFCSDDTGCPSSQSVSPVKTPSDAGNSPIGFCPGSDEGFTRKKCTIGMVGEGSIQSSRYKKESKSGLVKPGSEADFSSSSSTGSISAPEVHMSTAGSKRSSSSRNRGPHGRSNGASSHKPGSSPSSPREKDLLSMLCRNQLSPVNIHPSYAPSSPSSSNSGSYKGSDCSPIMRRSGRYMSCGENHGVRPPNPEQYLTPLQQKEVTVRHLKTKLKESERRLHERESEIVELKSQLARMREDWIEEECHRVEAQLALKEARKEIKQLKQVIETMRSSLADKDKGIQKYFVDINIQNKKLESLLQSMEMAHSGSLRDELCLDFPCDSPEKSLTLNPPLDTMADGLSLEEQVTGEGADRELLVGDSIANSTDLFDEIVTATTTESGDLELVHSTPGANVLELLPIVMGQEEGSVVVERAVQTDVVPYSPAISELIQSVLQKLQDPCPSSLASPDESEPDSMESFPESLSALVVDLTPRNPNSAILLSPVETPYANVDAEVHANRLMRELDFAACVEERLDGVIPLARGGVVRQYWSSSFLVDLLAVAAPVVPTVLWAFSTQRGGTDPVYNIGALLRGCCVVALHSLRRTAFRIKT [SYBU]”, the “solubility in G1/S (log2)” value in the series with HeLa Kyoto [1] is -0.253. The “solubility change mitosis (log2)” value with HeLa Kyoto [2] was found to be 0.0944.

Turning to “MGSELIGRLAPRLGLAEPDMLRKAEEYLRLSRVKCVGLSARTTETSSAVMCLDLAASWMKCPLDRAYLIKLSGLNKETYQSCLKSFECLLGLNSNIGIRDLAVQFSCIEAVNMASKILKSYESSLPQTQQVDLDLSRPLFTSAALLSACKILKLKVDKNKMVATSGVKKAIFDRLCKQLEKIGQQVDREPGDVATPPRKRKKIVVEAPAKEMEKVEEMPHKPQKDEDLTQDYEEWKRKILENAASAQKATAE [ORC6]”, the “solubility in G1/S (log2)” value with HeLa Kyoto [1] was 0.47. Further, the “solubility change mitosis (log2)” value in the series on HeLa Kyoto [2] is -0.389.

As to “MGSKERFHWQSHNVKQSGVDDMVLLPQITEDAIAANLRKRFMDDYIFTYIGSVLISVNPFKQMPYFTDREIDLYQGAAQYENPPHIYALTDNMYRNMLIDCENQCVIISGESGAGKTVAAKYIMGYISKVSGGGEKVQHVKDIILQSNPLLEAFGNAKTVRNNNSSRFGKYFEIQFSRGGEPDGGKISNFLLEKSRVVMQNENERNFHIYYQLLEGASQEQRQNLGLMTPDYYYYLNQSDTYQVDGTDDRSDFGETLSAMQVIGIPPSIQQLVLQLVAGILHLGNISFCEDGNYARVESVDLLAFPAYLLGIDSGRLQEKLTSRKMDSRWGGRSESINVTLNVEQAAYTRDALAKGLYARLFDFLVEAINRAMQKPQEEYSIGVLDIYGFEIFQKNGFEQFCINFVNEKLQQIFIELTLKAEQEEYVQEGIRWTPIQYFNNKVVCDLIENKLSPPGIMSVLDDVCATMHATGGGADQTLLQKLQAAVGTHEHFNSWSAGFVIHHYAGKVSYDVSGFCERNRDVLFSDLIELMQTSEQAFLRMLFPEKLDGDKKGRPSTAGSKIKKQANDLVATLMRCTPHYIRCIKPNETKRPRDWEENRVKHQVEYLGLKENIRVRRAGFAYRRQFAKFLQRYAILTPETWPRWRGDERQGVQHLLRAVNMEPDQYQMGSTKVFVKNPESLFLLEEVRERKFDGFARTIQKAWRRHVAVRKYEEMREEASNILLNKKERRRNSINRNFVGDYLGLEERPELRQFLGKRERVDFADSVTKYDRRFKPIKRDLILTPKCVYVIGREKVKKGPEKGQVCEVLKKKVDIQALRGVSLSTRQDDFFILQEDAADSFLESVFKTEFVSLLCKRFEEATRRPLPLTFSDTLQFRVKKEGWGGGGTRSVTFSRGFGDLAVLKVGGRTLTVSVGDGLPKSSKPTRKGMAKGKPRRSSQAPTRAAPAPPRGMDRNGVPPSARGGPLPLEIMSGGGTHRPPRGPPSTSLGASRRPRARPPSEHNTEFLNVPDQGMAGMQRKRSVGQRPVPGVGRPKPQPRTHGPRCRALYQYVGQDVDELSFNVNEVIEILMEDPSGWWKGRLHGQEGLFPGNYVEKI [MYO1F]”, in the series with HeLa Kyoto [1], the “solubility in G1/S (log2)” value is -0.1. The “solubility change mitosis (log2)” value with HeLa Kyoto [2] is -0.173.

As to “MGSQHSAAARPSSCRRKQEDDRDGLLAEREQEEAIAQFPYVEFTGRDSITCLTCQGTGYIPTEQVNELVALIPHSDQRLRPQRTKQYVLLSILLCLLASGLVVFFLFPHSVLVDDDGIKVVKVTFNKQDSLVILTIMATLKIRNSNFYTVAVTSLSSQIQYMNTVVSTYVTTNVSLIPPRSEQLVNFTGKAEMGGPFSYVYFFCTVPEILVHNIVIFMRTSVKISYIGLMTQSSLETHHYVDCGGNSTAI [TMEM106C]”, the “solubility in G1/S (log2)” value with HeLa Kyoto [1] worked out at 0.121. The “solubility change mitosis (log2)” value with HeLa Kyoto [2] was -0.29.

For the sequence “MGTFCSVIKFENLQELKRLCHWGPIIALGVIAICSTMAMIDSVLWYWPLHTTGGSVNFIMLINWTVMILYNYFNAMFVGPGFVPLGWKPEISQDTMYLQYCKVCQAYKAPRSHHCRKCNRCVMKMDHHCPWINNCCGYQNHASFTLFLLLAPLGCIHAAFIFVMTMYTQLYHRLSFGWNTVKIDMSAARRDPLPIVPFGLAAFATTLFALGLALGTTIAVGMLFFIQMKIILRNKTSIESWIEEKAKDRIQYYQLDEVFVFPYDMGSRWRNFKQVFTWSGVPEGDGLEWPVREGCHQYSLTIEQLKQKADKRVRSVRYKVIEDYSGACCPLNKGIKTFFTSPCTEEPRIQLQKGEFILATRGLRYWLYGDKILDDSFIEGVSRIRGWFPRKCVEKCPCDAETDQAPEGEKKNR [ZDHHC6]”, the “solubility in G1/S (log2)” value in the series with HeLa Kyoto [1] is -0.0586. Further, the “solubility change mitosis (log2)” value in the series on HeLa Kyoto [2] was -0.272.

As to “MGTSLSPNDPWPLNPLSIQQTTLLLLLSVLATVHVGQRLLRQRRRQLRSAPPGPFAWPLIGNAAAVGQAAHLSFARLARRYGDVFQIRLGSCPIVVLNGERAIHQALVQQGSAFADRPAFASFRVVSGGRSMAFGHYSEHWKVQRRAAHSMMRNFFTRQPRSRQVLEGHVLSEARELVALLVRGSADGAFLDPRPLTVVAVANVMSAVCFGCRYSHDDPEFRELLSHNEEFGRTVGAGSLVDVMPWLQYFPNPVRTVFREFEQLNRNFSNFILDKFLRHCESLRPGAAPRDMMDAFILSAEKKAAGDSHGGGARLDLENVPATITDIFGASQDTLSTALQWLLLLFTRYPDVQTRVQAELDQVVGRDRLPCMGDQPNLPYVLAFLYEAMRFSSFVPVTIPHATTANTSVLGYHIPKDTVVFVNQWSVNHDPLKWPNPENFDPARFLDKDGLINKDLTSRVMIFSVGKRRCIGEELSKMQLFLFISILAHQCDFRANPNEPAKMNFSYGLTIKPKSFKVNVTLRESMELLDSAVQNLQAKETCQ [CYP1B1]”, the “solubility in G1/S (log2)” value in the series with HeLa Kyoto [1] is -0.0639. In addition, the “solubility change mitosis (log2)” value in the series with HeLa Kyoto [2] was -0.171.
